The results in this text go back to patent US8987424B2, “CA6 antigen-specific cytotoxic conjugate and methods of using the same” (ImmunoGen, Inc., priority 2003, dated 2015).

The subject of one assay is Caov-3 cells. The assay is described as follows: Flow cytometry binding assay. On the set-up: species or system human. The method, then: Flow cytometric analysis was used to localize the DS6 epitope, CA6, to the cell surface. Human cell lines were obtained from the American Type Culture Collection (ATCC) with the exception of OVCAR5 (Kearse et al., Int. J. Cancer 88(6):866-872 (2000)), OVCAR8 and IGROV1 cells (M. Seiden, Massachusetts General Hospital). All cells were grown in RPMI 1640 supplemented with 4 mM L-glutamine, 50 U/ml penicillin, 50 μg/ml streptomycin (Cambrex Bio Science, Rockland, Me.) and 10% v/v fetal bovine serum (Atlas Biologicals, Fort Collins, Colo.), referred hereafter as culture media. Cells were maintained in a 37° C., 5% CO2 humidified incubator.
Cells ([…]) were incubated, on ice for 3-4 h, with serially diluted concentrations of the DS6 antibody prepared in FACS buffer (2% goat serum, RPMI) into 96-well plates. […] After two washes, the cells were fixed with 1% formaldehyde and analyzed on a flow cytometer.
The muDS6 antibody (8 mg/ml) was modified using 8-fold molar excess of N-succinimidyl-4-(2-pyridyldithio) pentanoate (SPP) to introduce dithiopyridyl groups. […] The degree of modification was determined by measuring the absorbance of the antibody at 280 nm and the DTT released 2-mercaptopyridine (Spy) at 280 and 343 nm. […] The number of DM1 molecules linked per molecule of muDS6 was determined by measuring the absorbance at both 252 nm and 280 nm of the filtered material. […]
(In general: In flow cytometry, cells or beads pass a laser one at a time.)

The test system of the next assay is HPAC cells. The assay is described as follows: Complement-dependent cytotoxicity (CDC) assay. In kind it is cell-based. As to conditions: 5% human or rabbit serum. On the procedure:
(§1) To further test the inherent activity of naked muDS6, a complement-dependent cytotoxicity (CDC) assay using muDS6 was conducted. HPAC and ZR-75-1 cells (25000 cells/well) were plated in 96 well plates, in the presence of 5% human or rabbit serum and various dilutions of muDS6, in 200 μl of RHBP media (RPMI-1640, 0.1% BSA, 20 mM HEPES (pH 7.2-7.4), 100 U/ml penicillin and 100 ug/ml streptomycin). The cells were incubated for 2 h at 37° C. Then Alamar Blue (10% of final concentration) reagent (Biosource) was added to the supernatant. The cells were incubated for 5-24 hrs before measuring fluorescence.

A further assay concerns ZR-75-1 cells. The assay is described as follows: Complement-dependent cytotoxicity (CDC) assay. In kind it is cell-based. As to conditions: 5% human or rabbit serum. The method, then:
as §1

B1: DS6-DM1: muDS6 antibody modified with SPP and conjugated to the maytansinoid DM1 (conjugate)
VH: QAYLQQSGAELVRSGASVKMSCKASGYTFTSYNMHWVKQTPGQGLEWIGYIYPGNGATNYNQKFKGKATLTADPSSSTAYMQISSLTSEDSAVYFCARGDSVPFAYWGQGTLVTVSA
VL: QIVLTQSPAIMSASPGEKVTITCSAHSSVSFMHWFQQKPGTSPKLWIYSTSSLASGVPARFGGSGSGTSYSLTISRMEAEDAATYYCQQRSSFPLTFGAGTKLELKR
As to B1, the “effect of conjugation on binding affinity” value in the assay with Caov-3 cells (Caov-3 cells, versus unmodified muDS6) is recorded as “only a slight loss of affinity”.

B2: DS6: murine anti-CA6 monoclonal antibody DS6 (ATCC deposit number PTA-4449) (antibody, V domains shown)
VH: B1 VH
VL: B1 VL
In the case of B2, the “MMF (average maximum relative mean fluorescence)” value in the assay with Caov-3 cells (Caov-3) worked out at 465.20. Moreover, the CDC mediated effect entry in the assay on HPAC cells (listed as Murine DS6) is “no effect”; with HPAC cells (listed as muDS6) it was “no CDC mediated effect”; in the assay with ZR-75-1 cells (listed as Murine DS6), “no effect”; with ZR-75-1 cells (listed as muDS6) it was “no CDC mediated effect”.
